# T1: Tat, excreted regulatory protein encoded by HIV-1 (HIV-1 IIIB, in infected Jurkat cells) (HIV-1 IIIB, UniProt P04610 1-86)
# T1 sequence: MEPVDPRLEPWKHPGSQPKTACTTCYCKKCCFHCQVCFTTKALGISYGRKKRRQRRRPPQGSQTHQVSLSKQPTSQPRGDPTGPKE
# B1: n-CoDeR ® anti-Tat antibody (antibody, V domains shown)
# VH: EVQLLESGGGLVQPGGSLRLSCAASGFTFDDYGMAWVRQAPGKGLEWVSGVSWNGSRTHYADSVKGRFTISRDNSKNTLYLQMNSLRAEDTAVYYCARGVAGHDYWGQGTLVTVSS
# VL: QSVLTQPPSASGTPGQRVTISCSGSRSNIGSHYVFWYQQLPGTAPKLLIYDNNKRPSGVPDRFSGSKSGTSASLAISGLRSEDEADYYCAAWDGSLSGHVVFGGGTKLTVLG
# notes: Human IgG1 lambda, expressed in CHO cells; also called fully human recombinant IgG1 antibody from the n-CoDeR phage display library
# Columns and labels:
# [1] = target: T2, target epitope BSA conjugated peptide (HIV-1, conjugated to BSA); assay: ELISA, BSA-conjugated peptide coated on plates, HRP rabbit anti-human IgG, luminescence
# T2 construct: also called peptide conjugated to BSA
# [2] = target: T1, Tat, excreted regulatory protein …; assay: cell-based or functional assay
binder,measurement,setting,value
B1,EC50,[1],700 pM
same,"IC50 of inhibition of HIV-1 replication, 1 % initially HIV-1 IIIB infected Jurkat cells, p24 ELISA",[2],0.05 µg/mL
same,"IC50 of inhibition of HIV-1 replication, 3 % initially HIV-1 IIIB infected Jurkat cells, p24 ELISA",[2],0.07 µg/mL

# Reference: WO2006089678A2 (dated 2006)
